# Where a chain is given by its changes, count along the chain named.
# T1: human IL-4 (recombinant E. coli-expressed) (human, UniProt P05112 25-153)
# T1 sequence (looked up): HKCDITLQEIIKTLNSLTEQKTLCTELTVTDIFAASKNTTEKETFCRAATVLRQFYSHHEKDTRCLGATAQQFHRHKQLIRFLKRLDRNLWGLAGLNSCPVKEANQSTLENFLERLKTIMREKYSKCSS
# B1: BPC1624 (bispecific antibody, human IgG1, kappa)
# heavy: not shown
# light: DIVMTQSPLSLPVTPGEPASISCRSSQNIVHINGNTYLEWYLQKPGQSPRLLIYKISDRFSGVPDRFSGSGSGTDFTLKISRVEADDVGIYYCFQGSHVPWTFGQGTKLEIKRTVAAPSVFIFPPSDEQLKSGTASVVCLLNNFYPREAKVQWKVDNALQSGNSQESVTEQDSKDSTYSLSSTLTLSKADYEKHKVYACEVTHQGLSSPVTKSFNRGEC
# B2: BPC1625 (bispecific antibody, human IgG1, kappa)
# heavy: not shown
# light: B1 light
# B3: BPC1626 (bispecific antibody, human IgG1, kappa)
# heavy: not shown
# light: B1 light
# B4: BPC1086 (bispecific antibody, human IgG1, kappa)
# heavy: not shown
# light: B1 light
# notes: also called 829H-GS(TVAAPSGS)3-154 (89Q)
# B5: BPC1627 (bispecific antibody, human IgG1, kappa)
# heavy: not shown
# light: B1 light
# B6: BPC1115 (bispecific antibody, human IgG1, kappa)
# heavy: not shown
# light: B1 light
# notes: mAbdAb; dAb Kabat 89 Y; also called 829H-(TVAAPS)2GS-154 (89Y)
# B7: BPC3214 (bispecific antibody, human IgG1, kappa)
# heavy: not shown
# light: DIQMTQSPSSLSASVGDRVTITCRSSQNIVHINGNTYLEWYQQKPGKAPKLLIYKISDRFSGVPSRFSGSGSGTDFTLTISSLQPEDFATYYCFQGSHVPWTFGQGTKLEIKRTVAAPSVFIFPPSDEQLKSGTASVVCLLNNFYPREAKVQWKVDNALQSGNSQESVTEQDSKDSTYSLSSTLTLSKADYEKHKVYACEVTHQGLSSPVTKSFNRGEC
# notes: mAbdAb with the re-humanised light chain P0
# B8: BPC3215 (bispecific antibody, human IgG1, kappa)
# heavy: not shown
# light: B7 light with I2V, Q3L
# notes: mAbdAb with the re-humanised light chain P1
# B9: A1H100A ArgL1 (antibody, human IgG1, kappa, V domains shown)
# VH: QVQLVQSGAEVKKPGSSVKVSCKASGFYIKDTYMHWVRQAPGQGLEWMGTIDPANGNTKYVPKFQGRVTITADESTSTAYMELSSLRSEDTAVYYCARSIYDDYRYDDYYAMDYWGQGTLVTVSS
# VL: DIVMTQSPLSLPVTPGEPASISCRSSQNIVHINGNTYLEWYLQKPGQSPRLLIYKISDRFSGVPDRFSGSGSGTDFTLKISRVEADDVGIYYCFQGSHVPWTFGQGTKLEIKR
# notes: CDRH3 variant of A1L1
# B10: A1H100A ThrL1 (antibody, human IgG1, kappa, V domains shown)
# VH: B9 VH with R105T
# VL: B9 VL
# notes: CDRH3 variant of A1L1
# B11: A1Y97PheL1 (antibody, human IgG1, kappa, V domains shown)
# VH: B9 VH with Y101F, R105H
# VL: B9 VL
# notes: CDRH3 variant of A1L1
# B12: A1H100A ValL1 (antibody, human IgG1, kappa, V domains shown)
# VH: B9 VH with R105V
# VL: B9 VL
# notes: CDRH3 variant of A1L1
# B13: A1Y100B AlaL1 (antibody, human IgG1, kappa, V domains shown)
# VH: B9 VH with R105H, Y106A
# VL: B9 VL
# notes: CDRH3 variant of A1L1
# B14: A1H100A GlnL1 (antibody, human IgG1, kappa, V domains shown)
# VH: B9 VH with R105Q
# VL: B9 VL
# notes: CDRH3 variant of A1L1
# B15: A1H100A SerL1 (antibody, human IgG1, kappa, V domains shown)
# VH: B9 VH with R105S
# VL: B9 VL
# notes: CDRH3 variant of A1L1
# B16: A1H100A GluL1 (antibody, human IgG1, kappa, V domains shown)
# VH: B9 VH with R105E
# VL: B9 VL
# notes: CDRH3 variant of A1L1
# B17: A1Y100B IleL1 (antibody, human IgG1, kappa, V domains shown)
# VH: B9 VH with R105H, Y106I
# VL: B9 VL
# notes: CDRH3 variant of A1L1
# B18: A1Y100B TrpL1 (antibody, human IgG1, kappa, V domains shown)
# VH: B9 VH with R105H, Y106W
# VL: B9 VL
# notes: CDRH3 variant of A1L1
# B19: A1I96ValL1 (antibody, human IgG1, kappa, V domains shown)
# VH: B9 VH with I100V, R105H
# VL: B9 VL
# notes: CDRH3 variant of A1L1
# B20: DOM9-155-154 (other)
# VL: DIQMTQSPSSLSASVGDRVTITCRASRPISDWLHWYQQKPGKAPKLLIAWASSLQGGVPSRFSGSGSGTDFTLTISSLQPEDFATYYCLQEGWGPPTFGQGTKVEIKR
# Legend:
# [1] = target: T2, human IL-13 (recombinant E. coli-expressed) (human, UniProt P35225 35-146); experiment: cell-based or functional assay
# [2] = target: T1, human IL-4 (recombinant E. …); experiment: direct binding ELISA, plate coated with 5 ug/ml human IL-4, anti-human kappa light chain-HRP detection, absorbance at 490 nm
# Experimental: 96-well high binding plates were coated with 5 μg/ml human IL-4 (made at GSK) in NaHCO₃ and stored overnight at 4° C. The plates were washed twice with Tris-Buffered Saline with 0.05% of Tween-20 (TBST). 100 μL of blocking solution (1% BSA in TBST buffer) was added in each well and the plates were incubated for at least one hour at room temperature. The mAbdAbs were successively diluted across the plates in blocking solution. After one hour incubation, the plates were washed three times. Goat anti-human kappa light chain specific peroxidase conjugated antibody (Sigma A7164) was diluted in blocking solution to 1 μg/mL and 50 μL was added to each well. The plates were incubated for one hour. After another three washing steps, 50 μl of OPD (o-phenylenediamine dihydrochloride) SigmaFast substrate solution was added to each well and the reaction was stopped after about 5 minutes by addition of 25 μL of 3M sulphuric acid. Absorbance was read at 490 nm using the VersaMax Tunable Microplate Reader (Molecular Devices) using a basic endpoint protocol.
# [3] = target: T2, human IL-13 (recombinant E. …); experiment: Biacore T100 SPR, Protein A capture (CM5), 1:1 fit; paragraph 260 calls Table 21 IL4, the values match IL13 (tables seem swapped)
# Experimental: Protein A was immobilised on a CM5 chip by primary amine coupling; this surface was used as a capture surface for the antibody molecules to be tested. […] Regeneration the Protein A surface was with 50 mM NaOH. The assay was run at 25° C. using HBS-EP as running buffer. The data was fitted to 1:1 model inherent to the Biacore T100 analysis software.
# [4] = target: T1, human IL-4 (recombinant E. …); experiment: Biacore T100 SPR, Protein A capture (CM5), human IL4 analyte, 1:1 fit; footnote: impossible on-rate
# Experimental: Protein A was immobilised on a CM5 chip by primary amine coupling; this surface was used as a capture surface for the antibody molecules to be tested.
# All binding curves were double referenced with a 0 nM injection (i.e. buffer alone). Regeneration of the Protein A surface was with 50 mM NaOH. The assay was run at 25° C. using HBS-EP as running buffer. The data was fitted to 1:1 model inherent to the Biacore T100 analysis software.
# [5] = target: T3, cyno IL-13 (recombinant E. coli-expressed) (cynomolgus, UniProt Q0PW92 21-132); experiment: Biacore T100 SPR, Protein A capture (CM5), cyno IL13 analyte, 1:1 fit; 'Impossible off-rates'
# T3 construct: also called cynomolgus IL-13
# Experimental: (§1) Protein A was immobilised on a CM5 chip by primary amine coupling; this surface was used as a capture surface for the antibody molecules to be tested. […] All binding curves were double referenced with a 0 nM injection (i.e. buffer alone).
# (§2) Regeneration of the Protein A surface was with 50 mM NaOH. The assay was run at 25° C. using HBS-EP as running buffer. The data was fitted to 1:1 model inherent to the Biacore T100 analysis software.
# [6] = target: T2, human IL-13 (recombinant E. …); experiment: Biacore T100 SPR, Protein A capture (CM5), human IL13 analyte, 1:1 fit
# Experimental: as §1, §2
# [7] = target: T2, human IL-13 (recombinant E. …); experiment: ProteOn XPR36 SPR, mAb (supernatant) captured on anti-human IgG, IL13 analyte, 1:1 fit
# Experimental: The initial screen of CDRH3 mutants was carried out on the ProteOn XPR36 (Biorad). […] 3M MgCl₂ was used to regenerate the capture surface, removing the bound CDRH3 mutant antibodies ready for another cycle of capture and analyte injection. The data was fitted to the 1:1 model using the software inherent to the machine.
# [8] = target: T2, human IL-13 (recombinant E. …); experiment: Biacore T100 SPR, mAb (supernatant) captured on anti-human IgG, IL13 analyte, 1:1 fit
# Excerpt: (§3) Table 1 details the overall affinities (equilibrium dissociation constant KD) for the selected constructs from the ProteOn screen and the T100 run
# [9] = target: T2, human IL-13 (recombinant E. …); experiment: Biacore T100 SPR, purified mAb captured on anti-human IgG, IL13 analyte, 1:1 fit
# Excerpt: as §3
# [10] = target: T2, human IL-13 (recombinant E. …); experiment: cell-based or functional assay; remark: listed apart in the source
# [11] = target: T2, human IL-13 (recombinant E. …); experiment: Biacore T100 SPR, purified mAb captured on anti-human IgG, IL13 analyte, 1:1 fit; remark: listed apart in the source
# Excerpt: as §3
# [12] = target: T1, human IL-4 (recombinant E. …); experiment: cell-based or functional assay
# T2 sequence (P35225 other isoform, or with tags, fused parts or gaps limits assumed): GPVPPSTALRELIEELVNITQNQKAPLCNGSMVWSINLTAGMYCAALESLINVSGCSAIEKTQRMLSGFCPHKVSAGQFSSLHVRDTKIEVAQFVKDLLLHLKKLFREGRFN
binder,measurement,setting,value
B1,"ND50 human IL-13, TF-1 cell proliferation bioassay",[1],0.553 nM
B2,"ND50 human IL-13, TF-1 cell proliferation bioassay",[1],0.542 nM
B3,"ND50 human IL-13, TF-1 cell proliferation bioassay",[1],0.681 nM
B4,EC50 (read off the curve),[2],~4 nM
same,Kd,[3],0.051 nM
same,koff,[3],6.57e-05 s⁻¹
same,kon,[3],1.28e+06 M⁻¹ s⁻¹
B5,"ND50 human IL-13, TF-1 cell proliferation bioassay",[1],0.615 nM
B6,Kd,[4],2.29 nM
same,koff,[4],0.329 s⁻¹
same,kon,[4],1.44e+08 M⁻¹ s⁻¹
B7,Kd,[5],< 0.0311 nM
same,koff,[5],< 1e-05 s⁻¹
same,kon,[5],321000 M⁻¹ s⁻¹
same,Kd,[6],0.093 nM
same,koff,[6],7.18e-05 s⁻¹
same,kon,[6],775000 M⁻¹ s⁻¹
B8,Kd,[5],0.00955 nM
same,koff,[5],3.13e-06 s⁻¹
same,kon,[5],328000 M⁻¹ s⁻¹
same,Kd,[6],0.064 nM
same,koff,[6],5.23e-05 s⁻¹
same,kon,[6],822000 M⁻¹ s⁻¹
B9,Kd,[7],0.256 nM
same,Kd,[8],0.307 nM
B10,Kd,[7],0.158 nM
same,Kd,[8],0.211 nM
B11,Kd,[7],0.683 nM
same,Kd,[8],0.618 nM
B12,Kd,[7],0.112 nM
same,Kd,[8],0.152 nM
B13,Kd,[9],0.031 nM
same,koff,[9],3e-05 s⁻¹
same,kon,[9],960000 M⁻¹ s⁻¹
same,Kd,[7],0.075 nM
same,"ND50 (nM), TF-1 cell proliferation bioassay",[10],0.92 nM
same,Kd,[11],0.032 nM
same,koff,[11],2.58e-05 s⁻¹
same,kon,[11],810000 M⁻¹ s⁻¹
same,Kd,[8],0.083 nM
B14,Kd,[7],0.195 nM
same,Kd,[8],0.278 nM
B15,Kd,[7],0.131 nM
same,Kd,[8],0.174 nM
B16,Kd,[7],0.11 nM
same,Kd,[8],0.195 nM
B17,Kd,[9],0.049 nM
same,koff,[9],5.58e-05 s⁻¹
same,kon,[9],1.15e+06 M⁻¹ s⁻¹
same,Kd,[7],0.075 nM
same,"ND50 (nM), TF-1 cell proliferation bioassay",[10],1.1 nM
same,Kd,[11],0.043 nM
same,koff,[11],4.21e-05 s⁻¹
same,kon,[11],989000 M⁻¹ s⁻¹
same,Kd,[8],0.073 nM
B18,Kd,[9],0.063 nM
same,koff,[9],0.000163 s⁻¹
same,kon,[9],2.57e+06 M⁻¹ s⁻¹
same,Kd,[7],0.068 nM
same,"ND50 (nM), TF-1 cell proliferation bioassay",[10],1.25 nM
same,Kd,[11],0.053 nM
same,koff,[11],0.000125 s⁻¹
same,kon,[11],2.38e+06 M⁻¹ s⁻¹
same,Kd,[8],0.095 nM
B19,Kd,[7],0.395 nM
same,Kd,[8],0.696 nM
B20,"Mean ND50 value (nM), TF-1 cell proliferation bioassay",[12],0.98 nM

# From patent publication US20120082682A1 (GlaxoSmithKline, published 2012)
